Reference: patent US20160257760A1 (OXFORD BIOTHERAPEUTICS, published 2016)

Key:
[1] = molecular target: Contiguous 8mer peptides of LY75 protein spanning residues 216 to 1666 of the full length LY75 protein (peptide microarray); test: peptide microarray, 1 ug/mL LY75_A1, anti-human IgG Alexa 647, scan at 635 nm
EVKDCRSF = molecular target: T1, EVKDCRSF; test: peptide microarray, 1 µg/mL LY75_A1, anti-human IgG Alexa 647
T1 peptide: EVKDCRSF
Experimental: (§1) The chip comprised three panels such that the experiment was performed in triplicate. […] The binding assay was performed under the following conditions:—The microarray comprising the contiguous peptides in triplicate was washed with 1 mL of binding buffer at 4° C. for 20 min. […] The array was again washed with 0.5 mL of washing buffer at 4° C. for 30 min.

RSFKALSI = molecular target: T2, RSFKALSI; test: as above
T2 peptide: RSFKALSI
Experimental: as §1

PWRRGWHF = molecular target: T3, PWRRGWHF; test: as above
T3 peptide: PWRRGWHF
Experimental: as §1

RRGWHFYD = molecular target: T4, RRGWHFYD; test: as above
T4 peptide: RRGWHFYD
Experimental: as §1

YDDREFIY = molecular target: T5, YDDREFIY; test: as above
T5 peptide: YDDREFIY
Experimental: as §1

DREFIYLR = molecular target: T6, DREFIYLR; test: as above
T6 peptide: DREFIYLR
Experimental: as §1

EFIYLRPF = molecular target: T7, EFIYLRPF; test: as above
T7 peptide: EFIYLRPF
Experimental: as §1

[2] = molecular target: T8, LY75 tryptic peptide GWHFYDDR (765-772); test: as above
T8 construct: Tryptic peptide of recombinant LY75, eluted from LY75_A1 beads and identified by LC-MS/MS
T8 peptide: GWHFYDDR
Experimental: as §1

DDHFTYSR = molecular target: T9, DDHFTYSR; test: as above
T9 peptide: DDHFTYSR
Experimental: as §1

DHFTYSRY = molecular target: T10, DHFTYSRY; test: as above
T10 peptide: DHFTYSRY
Experimental: as §1

HFTYSRYP = molecular target: T11, HFTYSRYP; test: as above
T11 peptide: HFTYSRYP
Experimental: as §1

FTYSRYPW = molecular target: T12, FTYSRYPW; test: as above
T12 peptide: FTYSRYPW
Experimental: as §1

YSRYPWHR = molecular target: T13, YSRYPWHR; test: as above
T13 peptide: YSRYPWHR
Experimental: as §1

SRYPWHRF = molecular target: T14, SRYPWHRF; test: as above
T14 peptide: SRYPWHRF
Experimental: as §1

RYPWHRFP = molecular target: T15, RYPWHRFP; test: as above
T15 peptide: RYPWHRFP
Experimental: as §1

YPWHRFPV = molecular target: T16, YPWHRFPV; test: as above
T16 peptide: YPWHRFPV
Experimental: as §1

WHRFPVTF = molecular target: T17, WHRFPVTF; test: as above
T17 peptide: WHRFPVTF
Experimental: as §1

HRFPVTFG = molecular target: T18, HRFPVTFG; test: as above
T18 peptide: HRFPVTFG
Experimental: as §1

VSLCQKYS = molecular target: T19, VSLCQKYS; test: as above
T19 peptide: VSLCQKYS
Experimental: as §1

VKYLNNLY = molecular target: T20, VKYLNNLY; test: as above
T20 peptide: VKYLNNLY
Experimental: as §1

YLNNLYKI = molecular target: T21, YLNNLYKI; test: as above
T21 peptide: YLNNLYKI
Experimental: as §1

LNNLYKII = molecular target: T22, LNNLYKII; test: as above
T22 peptide: LNNLYKII
Experimental: as §1

NNLYKIIP = molecular target: T23, NNLYKIIP; test: as above
T23 peptide: NNLYKIIP
Experimental: as §1

NLYKIIPK = molecular target: T24, NLYKIIPK; test: as above
T24 peptide: NLYKIIPK
Experimental: as §1

LYKIIPKT = molecular target: T25, LYKIIPKT; test: as above
T25 peptide: LYKIIPKT
Experimental: as §1

YKIIPKTL = molecular target: T26, YKIIPKTL; test: as above
T26 peptide: YKIIPKTL
Experimental: as §1

KIIPKTLT = molecular target: T27, KIIPKTLT; test: as above
T27 peptide: KIIPKTLT
Experimental: as §1

IIPKTLTW = molecular target: T28, IIPKTLTW; test: as above
T28 peptide: IIPKTLTW
Experimental: as §1

IPKTLTWH = molecular target: T29, IPKTLTWH; test: as above
T29 peptide: IPKTLTWH
Experimental: as §1

PKTLTWHS = molecular target: T30, PKTLTWHS; test: as above
T30 peptide: PKTLTWHS
Experimental: as §1

KTLTWHSA = molecular target: T31, KTLTWHSA; test: as above
T31 peptide: KTLTWHSA
Experimental: as §1

TLTWHSAK = molecular target: T32, TLTWHSAK; test: as above
T32 peptide: TLTWHSAK
Experimental: as §1

B1: LY75_A1 monoclonal antibody (antibody, V domains shown)
VH: EVQLVESGGGLVKPGGSLRLSCAASGFTYSNAWMSWVRQAPGKGLEWVGRIKSKTDGGTTDYAAPVQGRFTISRDDSKNTLYLQMNSLKTEDTAVYYCTIFGVVSFDYWGQGTLVTVSS
VL: DVQMTQSPSSLSASVGDRVTITCRASQSISDYLSWYQQRPGKAPNLLIYAASNLKTGVPSRFSGSGSGTDFTLTISTLQPEDFATYYCQQSYRSPWTFGQGTKVEIKR
notes: also called LY75A1 antibody; LY75_A1 antibody
885: average signal for all spots on the array (signal intensity (scale 1-65535)) [1]
binds: binding result (EVKDCRSF) | binding result (PWRRGWHF) | binding result (RRGWHFYD) | binding result (YDDREFIY) | binding result (DREFIYLR) | binding result (EFIYLRPF) | binding result [2] | binding result (DDHFTYSR) | binding result (DHFTYSRY) | binding result (HFTYSRYP) | binding result (YSRYPWHR) | binding result (SRYPWHRF) | binding result (RYPWHRFP) | binding result (YPWHRFPV) | binding result (WHRFPVTF) | binding result (HRFPVTFG) | binding result (VSLCQKYS) | binding result (VKYLNNLY) | binding result (YLNNLYKI) | binding result (LNNLYKII)
25000: maximum signal intensity (signal intensity (scale 1-65535)) [1]
no binding (tested: 1 µg/mL): binding result (RSFKALSI) | binding result (FTYSRYPW) | binding result (NNLYKIIP) | binding result (NLYKIIPK) | binding result (LYKIIPKT) | binding result (YKIIPKTL) | binding result (KIIPKTLT) | binding result (IIPKTLTW) | binding result (IPKTLTWH) | binding result (PKTLTWHS) | binding result (KTLTWHSA) | binding result (TLTWHSAK)
